The target in this experiment is T1, Gid2 (RING subunit of the GID E3 catalytic module) (S. cerevisiae, UniProt Q12508 1-421).
T1 sequence: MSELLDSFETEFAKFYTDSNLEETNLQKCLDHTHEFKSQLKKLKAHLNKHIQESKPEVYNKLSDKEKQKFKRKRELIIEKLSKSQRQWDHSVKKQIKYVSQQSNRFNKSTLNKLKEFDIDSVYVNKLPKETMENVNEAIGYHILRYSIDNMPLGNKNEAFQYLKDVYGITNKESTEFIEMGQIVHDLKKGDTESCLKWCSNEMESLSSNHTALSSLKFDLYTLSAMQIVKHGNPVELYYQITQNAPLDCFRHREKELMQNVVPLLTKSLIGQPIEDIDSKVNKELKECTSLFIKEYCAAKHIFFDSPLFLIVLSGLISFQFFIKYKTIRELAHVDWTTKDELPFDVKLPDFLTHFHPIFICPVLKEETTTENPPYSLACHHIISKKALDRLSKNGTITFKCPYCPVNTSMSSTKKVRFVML
In words: cryo-EM structure.

B1: Ubc8 C85K, insect cell-expressed and phosphorylated (the E2 chain of the Ubc8~ubiquitin mimic) (enzyme, S. cerevisiae)
chain: MSSSKRRIETDVMKLLMSDHQVDLINDSMQEFHVKFLGPKDTPYENGVWRLHVELPDNYPYKSPSIGFVNKIFHPNIDIASGSIKLDVINSTWSPLYDLINIVEWMIPGLLKEPNGSDPLNNEAATLQLRDKKLYEEKIKEYIDKYATKEKYQQMFGGDNDSDDSDSGGDLQEEDSDSDEDMDGTGVSSGDDSVDELSEDLSDIDVSDDDDYDEVANQ
modifications: heterogeneously phosphorylated C-terminal extension (phosphoserines 202 and 207 modelled); K85 isopeptide-bonded to ubiquitin
For B1, the binding result is recorded as “binds”.

The values are drawn from paper PMC10843684 (Molecular cell, 2023).
